Measurements: US6482410B1, “Cytotactin derivatives that stimulate attachment and neurite outgrowth, and methods of making same” (The Scripps Research Institute, priority 1994, dated 2002)
“And” between values parts separate entries of the source, which are not always exact repeats. Equal entries are not always repeated. “Also recorded” adds a separate entry of the source.

B1: CTfn3: CT:GST fusion protein, fibronectin type III repeat III, residues 774-864 of SEQ ID NO 4 (protein)
chain: LDAPSQIEAKDVTDTTALITWSKPLAEIEGIELTYGPKDVPGDRTTIDLSEDENQYSIGNLRPHTEYEYEVTLISRRGDMESDPAKEVFVT
modifications: left off: a dimerising Fc or GST
B2: CTfg: CT:GST fusion protein, entire fibrinogen domain, residues 1570-1810 of SEQ ID NO 4 (protein)
chain: SMRSKMIQTVFTTTGLLYPYPKDCSQALLNGEVTSGLYTIYLNGDRTQPLQVFCDMAEDGGGWIVFLRRQNGKEDFYRNWKNYVAGFGDPKDEFWIGLENLHKISSQGQYELRVDLRDRGETAYAVYDKFSVGDAKTRYRLRVDGYSGTAGDSMTYHNGRSFSTFDKDNDSAITNCALSYKGAFWYKNCHRVNLMGRYGDNNHSQGVNWFHWKGHEYSIQFAEMKLRPSSFRNLEGRRKRA
modifications: left off: a dimerising Fc or GST
B3: CTfn6: CT:GST fusion protein, fibronectin type III repeat VI, residues 1318-1398 of SEQ ID NO 4 (protein)
chain: VVGSPKGISFSDITENSARVSWTPPRSRVDSYRVSYVPITGGTPNVVTVDGSKTRTKLVKLVPGVDYNVNIISVKGFEESE
modifications: left off: a dimerising Fc or GST

Tests used:
DRG cells = assay: DRG neurite outgrowth, 40 hour culture, morphology; format: cell-based, chicken; settings: DRG cells cultured 40 hours
Procedure: In order to assess the effect to the cell binding regions of CT/TN on the outgrowth of neurites from PNS neurons, DRG cells were cultured for 40 hours on popylysine, CTfn3, CTfn6, CTfg, and CTfn3-CTfn6 mixed substrates. The cultures were then fixed and the cell and neurite morphology was analyzed by phase contrast microscopy. The cells were plated on plastic substrates coated with the same concentrations of CTITN and fusion proteins used in the attachment assay.

[1] = tested on: neurons from chick forebrain; assay: CNS neurite outgrowth, forebrain neurons, 7 hours; format: cell-based; settings: 7 hour growth period; for % Sprouting: Table 4, FB (forebrain) neurons
Procedure: (§1) Dorsal root ganglia (DRG) cells or forebrain neurons were prepared for the cell attachment assays as follows. DRG from day 6 chicken embryos or forebrains from day 7 chicken embryos were dissected into HBSS. The tissue was pelleted by centrifugation and resuspended in CMF-HBSS and incubated at 37° C. for 10 minutes. The tissue was pelleted again and resuspended in CMF-HBSS containing 0.08% trypsin and allowed to trypsinize for 20 minutes at 37° C. An equal volume of DMEM/F12, 10% FCS, 20 ng/ml nerve growth factor (NGF) (for DRG cells only), 10 μg/ml gentamycin (10% medium) was added, and the tissue was pelleted and resuspended in 2 ml of the 10% medium. The cells were triturated with a fire-polished Pasteur pipette for 15 strokes, and the cells were washed and resuspended in 10 ml of 10% medium. DRG cells were plated in a 10 cm tissue culture dish and incubated for 1 hour at 37° C. in 5% CO2, to allow for attachment of contaminating fibroblasts.
(§2) After replating, the cells were harvested, pelleted and washed three times in DMEM/F12, 1% fetal calf serum (FCS), 20 ng/ml NGF (for DRG cells only), 10 μg/ml gentamycin (1% medium), and the number of cells determined using a hemocytometer. The DRG were resuspended to a density of 6×10^5 cells/ml in attachment buffer. The neurons were resuspended to a density of 2×10^4 cells/ml in 1% medium and added to substrates and placed at 37° C., 5% CO2 for 15 hours.
(§3) After the growth period, the dishes were gently rinsed with PBS to remove unbound cells, fixed with 1% glutaraldehyde, and viewed by phase contrast microscopy. Ten to forty cells were analyzed for each substrate. Cells were judged as neurite-bearing if the length of the processes was greater than one cell diameter. All cells with neurites were photographed with a 20× objective and total neurite length per neurite-bearing cell was derived from the photographic prints. Percentage of neuronal sprouting was calculated from at least six experiments. Neurite length was calculated from at least three experiments.
To investigate whether CNS neurons could also extend neurites on CT/TN and CT/TN fragments, neurons from chick forebrain were plated at low density on CT/TN, CT/TN fragments and polylysine, and analyzed for neurite outgrowth after a 7 hour growth period (a time period found to be optimal for stable neurite outgrowth from these cells). The lengths of neurites on substrates that supported sprouting were essentially the same for the forebrain neurons and were therefore not quantitated further.

[2] = tested on: dorsal root ganglia (DRG) neurons; assay: Two-dimensional neurite outgrowth assay, DRG, 15 hours; format: cell-based, chicken; settings: 15 hours; for neurite promoting activity on DRG cells: low density; for % Sprouting / Neurite Length: Table 4, DRG; for % Sprouting: neurites greater than one cell diameter; for Neurite Length: per neurite-bearing cell; for Percent Sprouting / Neurite Length (in microns): Table 5, DRG; for Percent Sprouting: six experiments; for Neurite Length (in microns): three experiments
Procedure: as §1, §2, §3
This extensive neurite outgrowth after 40 hours made quantitation of the percentage of neurite-bearing cells and neurite length difficult. To analyze quantitatively the effect of CT/TN fusion proteins on DRG neurite outgrowth, DRG cells were therefore plated at low density on CT/TN or CT/TN fragments and analyzed after 15 hours in culture for the percentage of cells that sprouted neurites greater than one cell diameter and for the everage neurite length per neuron. These conditions enhanced the number of isolated cells and discouraged the cell-cell interactions and fasciculation that occurred in the long-term cultures.
The proteins used in the neurite outgrowth assays are the same as those used in the cell attachment assays. […] In addition, poly-L-lysine was adsorbed to the solid support. […] Any cells adhering to the solid support were examined for sprouting and neurite length as defined herein.
Proteins used in the neurite outgrowth assays were prepared as described in Example 5.A.2.
Dorsal root ganglia (DRG) from day 6 chicken embryos were prepared as described in Example 5.A.4. For the neurite outgrowth assays, the DRG were resuspended at a density of 2×10^4 cells/ml in 1% medium, added to solid support, and placed at 37° C. in 5% CO2 for 15 hours. After the attachment and growth period, the dishes were gently rinsed with PBS to remove unbound cells, fixed with 1% (v/v) glutaraldehyde, and viewed by phase contrast microscopy. Ten to thirty cells were analyzed for each adsorbed protein spot. Cells were judged as neurite-bearing if the length of the processes were greater than one cell diameter. All cells with neurites were photographed with a 40× objective and the total neurite length per neurite-bearing cell was derived from the prints. The percent of cells that were sprouting and the average neurite length was derived from six and three independent experiments, respectively. […]

[3] = tested on: dorsal root ganglia (DRG) cells; assay: Cell attachment assay, DRG neurons on protein-coated solid support; format: cell-based, chicken; settings: short-term attachment assay
Procedure: as §1
as §2, with “The neurons were resuspended to a density of 2×10^4 cells/ml in 1% medium and added to substrates and placed at 37° C., 5% CO2 for 15 hours.” left out
Chicken fibroblasts, DRG, and solid supports (dishes) coated with CT for use in the cell attachment assays were prepared as described in Examples 5.A.2-4, respectively. […] The number of bound cells was determined using a 10× objective with an eyepiece reticle. The number of cells was determined in four fields for each fusion protein dot as the number of cells bound per […]. […] The number of cells bound for CT was expressed as the average of the twelve measurements±standard deviation […]. […]
Cell attachment assays were performed essentially as follows. […] The cells were then washed in attachment buffer (CMF-HBSS, 10 mM Hepes, 1 mM CaCl2, 1 mM MgCl2, 0.1 mM MnCl2, 2% BSA) three times, counted in a hemocytometer, resuspended to a density of 6×10^5 cells/ml. […]

Row | Molecule | neurite and cell morphology after 40 hours (DRG cells) | forebrain cell attachment [1] | forebrain neuron sprouting versus polylysine [1] | % Sprouting [1] [%] | DRG neurite length versus polylysine ([2]; DRG) | average neurite length relative to poly-L-lysine ([2]; DRG) [times] | percentage of neurite-bearing DRG cells versus polylysine ([2]; DRG) | neurite promoting activity on DRG cells ([2]; DRG) | % Sprouting [2] [%] | Neurite Length [2] [microns] | Percent Sprouting [2] | Neurite Length (in microns) [2] [microns] | DRG neuron attachment to coated substrate (words) [3] | DRG neuron attachment to coated substrate (words) ([3]; listed as Ctfn6) | increase in number of neurite-bearing cells over polylysine ([2]; DRG)
1 | B1 | long fasciculated processes | did not support forebrain cell attachment | no effect on neurite outgrowth | 0 | significantly longer | 3 | comparable; also recorded: the same as on poly-L-lysine | did show neurite promoting activity | 12 ± 2 | 260 ± 141 | 12 ± 2 | 260 ± 141 |  |  | 
2 | B2 | basal level of outgrowth |  | not significantly different | 2.2 ± 0.5 | not statistically different; also recorded: statistically indistinguishable |  | comparable | did show neurite promoting activity | 8 ± 3 | 82 ± 23 | 8 ± 3 | 83 ± 23 | able to support DRG neuron attachment; also recorded: attached well |  | 
3 | B3 | moderately long neurites | promotes attachment | significant increase | 8.7 ± 1.9 | not statistically different; also recorded: statistically indistinguishable |  | increase in neurite outgrowth over poly-L-lysine | did show neurite promoting activity | 31 ± 2 | 153 ± 124 | 31 ± 2 | 154 ± 124 | able to support DRG neuron attachment; also recorded: supports both fibroblast and neuronal cell attachment | support fibroblast and neuronal cell attachment | 82% and 57%
